Consider 2 molecules from US20240252614A1 (Pfizer, published 2024).

Test [1] has as its target T1, PIV1031 (PIV1).
T1 construct: A466L, S473L
Description: BLI, 53C stress. (Biolayer interferometry detects binding as a change in optical thickness at a sensor tip.)
Description: (§1) All measurements were conducted at 30° C. temperature in 96-well black plates (Corning, Corning, NY) with a final volume of 240 μL per well at a constant agitation rate of 1000 RPM.
(§2) Conformation integrity of PIV1 F protein mutants were evaluated by a thermal stress experiment. Crude cell culture supernatants were normalized based on the results of the titer quantitation and then incubated for 1 hour at room temperature and two higher temperatures. For the initial testing of PIV1 mutants, the two temperatures were 50° C. and 53° C. […] Anti-Human IgG Fc Capture (AHC) biosensors were first equilibrated in PB for before being dipped into more PB to establish the initial baseline. […] The mAb-bound biosensors were then dipped into the thermal stresses cell culture supernatants for 5 minutes.

For test [2], the target named is T2, PIV1039 (PIV1).
T2 construct: A128P
Description: BLI, 53C stress.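 Note: binding of thermally stressed PIV1 F mutant supernatant to mAb on AHC biosensors for 5 min.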
Description: as §1, §2

The target in test [3] is T3, PIV1027 (PIV1).
T3 construct: S473L
Description: BLI, 53C stress.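 Note: binding of thermally stressed PIV1 F mutant supernatant to mAb on AHC biosensors for 5 min.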
Description: as §1, §2

Test [4] concerns the target T4, PIV1024 (PIV1).
T4 construct: A466V
Description: BLI, 53C stress.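 Note: binding of thermally stressed PIV1 F mutant supernatant to mAb on AHC biosensors for 5 min.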
Description: as §1, §2

The target in test [5] is T5, PIV1026 (PIV1).
T5 construct: S473V
Briefly: BLI, 53C stress.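 Note: binding of thermally stressed PIV1 F mutant supernatant to mAb on AHC biosensors for 5 min.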
Description: as §1, §2

For test [6], the target named is T6, PIV1033 (PIV1).
T6 construct: T198A
Briefly: BLI, 53C stress.
Description: as §1, §2

In test [7] the target is T7, PIV1030 (PIV1).
T7 construct: A466L, S473A
Briefly: BLI, 53C stress.
Description: as §1, §2

Test [8] deals with T8, PIV1014 (PIV1).
T8 construct: Q92C-G134C
Description: BLI, 53C stress.
Description: as §1, §2

Test [9] concerns the target T9, PIV1036 (PIV1).
T9 construct: G134A
Description: BLI, 53C stress.
Description: as §1, §2

Test [10] addresses T10, PIV1028 (PIV1).
T10 construct: A480L
Briefly: BLI, 53C stress.
Description: as §1, §2

Test [11] has as its target T11, PIV1023 (PIV1).
T11 construct: A466L
Briefly: BLI, 53C stress.
Description: as §1, §2

For test [12], the target named is T12, PIV1044 (PIV1).
T12 construct: Q92L
Description: BLI, no stress.
Description: as §1, §2

The target of test [13] is T13, PIV1045 (PIV1).
T13 construct: Q92L, G134A
Description: BLI, no stress.
Description: as §1, §2

The target of test [14] is T14, PIV1043 (PIV1).
T14 construct: Q92A, G134A
Description: BLI, no stress.
Description: as §1, §2

For test [15], the target named is T15, PIV1042 (PIV1).
T15 construct: Q92A
Briefly: BLI, no stress.
Description: as §1, §2

Test [16] deals with T16, PIV1046 (PIV1).
T16 construct: A466V, S473V
Description: BLI, no stress.
Description: as §1, §2

Test [17] deals with T1, PIV1031. Briefly: BLI, no stress.
Description: as §1, §2
Test [18] addresses T2, PIV1039. Description: BLI, no stress.
Description: as §1, §2
Test [19] addresses T3, PIV1027. Description: BLI, no stress.
Description: as §1, §2
Test [20] addresses T4, PIV1024. Description: BLI, no stress.
Description: as §1, §2
For test [21], the target named is T5, PIV1026. Description: BLI, no stress.
Description: as §1, §2
For test [22], the target named is T6, PIV1033. Description: BLI, no stress.
Description: as §1, §2
The target in test [23] is T7, PIV1030. Briefly: BLI, no stress.
Description: as §1, §2
Test [24] has as its target T9, PIV1036. Briefly: BLI, no stress.
Description: as §1, §2
In test [25] the target is T10, PIV1028. Description: BLI, no stress.
Description: as §1, §2
For test [26], the target named is T11, PIV1023. Briefly: BLI, no stress.
Description: as §1, §2
Test [27] concerns the target T17, stabilized hPIV1 F protein trimer in pre-fusion conformation (human parainfluenza virus 1).
T17 construct: also called preF-hPIV1; HPIV1 pre-fusion F protein
Briefly: ELISA, F protein coated. (An ELISA detects its analyte on a solid surface through an enzyme-linked reagent.)
Description: (§3) Briefly, 96-well microtiter plates were coated with 100 μL/well of individual F protein at 2 μg/mL, and then incubated at 4° C. overnight. After washing with 0.01M TBS/0.1% Brij-35, the plates were blocked with 5% non-fat milk for 1 hr at RT. […] After 3 washes with 0.01M TBS/0.1% Brij-35, 100 μL/well of secondary antibody (HRP-anti-human Fc) in a 1:3000 dilution was added to the plates and incubated for 1 hr RT. After 3 washes with 0.01M TBS/0.1% Brij-35, 100 μL/well of TMB-ELISA Substrate Solution was added to the plates. The reaction was stopped with addition of 100 μL/well of 2N H2SO4 after 2 minutes. The plates were then read on a SpectraMax microplate reader with SoftMax Pro software at OD 450 nm (Molecular Devices). The data was analyzed with Graphpad Prism software.

The target of test [28] is T18, hMPV045 (hMPV A, UniProt Q6WB98 19-102).
T18 construct: I137C-A159C
Description: BLI, no stress.
Description: (§4) The OCTET HTX (Sartorius, Gottingen, Germany) instrument was used to evaluate the expression and conformational integrity for each mutant. All measurements were conducted at 30° C. temperature in 96-well black plates (Corning, Corning, NY) with a final volume of 240 μL per well at a constant agitation rate of 1000 RPM.
(§5) Conformation integrity of hMPV A F protein mutants were evaluated by thermal stress experiments. Crude cell culture supernatants were normalized based on the results of the titer quantitation and then incubated for 1 hour at room temperature and two higher temperatures. […] Anti-Human IgG Fc Capture (AHC) biosensors were first equilibrated in PB before being dipped into more PB to establish the initial baseline. […] The mAb-bound biosensors were then dipped into the thermal stressed cell culture supernatants for 5 minutes. The kinetics analysis was done by OCTET data analysis software (version 12.0, Sartorius) based on curve fitting of the entire associate step.

Test [29] addresses hMPV A F WT Control (hMPV A, UniProt Q6WB98 19-102). Briefly: BLI, no stress.
Description: as §4, §5
The target of test [30] is T19, hMPV063 (hMPV A, UniProt Q6WB98 19-102).
T19 construct: G239A
Briefly: BLI, no stress.
Description: as §4, §5

Test [31] concerns the target T20, hMPV052 (hMPV A, UniProt Q6WB98 19-102).
T20 construct: L66P
Briefly: BLI, no stress.
Description: as §4, §5

Test [32] concerns the target T21, hMPV049 (hMPV A, UniProt Q6WB98 19-102).
T21 construct: E146C-T160C
Briefly: BLI, no stress.
Description: as §4, §5

Test [33] deals with T22, hMPV062 (hMPV A, UniProt Q6WB98 19-102).
T22 construct: G121A
Briefly: BLI, no stress.
Description: as §4, §5

Test [34] addresses T23, hMPV054 (hMPV A, UniProt Q6WB98 19-102).
T23 construct: S132P
Briefly: BLI, no stress.
Description: as §4, §5

Test [35] concerns the target T24, hMPV068 (hMPV A, UniProt Q6WB98 19-102).
T24 construct: A159V
Briefly: BLI, no stress.
Description: as §4, §5

In test [36] the target is T25, hMPV066 (hMPV A, UniProt Q6WB98 19-102).
T25 construct: T49I
Briefly: BLI, no stress.
Description: as §4, §5

In test [37] the target is T26, hMPV043 (hMPV A, UniProt Q6WB98 19-102).
T26 construct: G366C-D454C
Briefly: BLI, no stress.
Description: as §4, §5

In test [38] the target is T27, hMPV053 (hMPV A, UniProt Q6WB98 19-102).
T27 construct: L110P
Briefly: BLI, no stress.
Description: as §4, §5

For test [39], the target named is T28, hMPV069 (hMPV A, UniProt Q6WB98 19-102).
T28 construct: S291I
Description: BLI, no stress.
Description: as §4, §5

Test [40] concerns the target T29, hMPV059 (hMPV A, UniProt Q6WB98 19-102).
T29 construct: V449P
Briefly: BLI, no stress.
Description: as §4, §5

The target in test [41] is T30, hMPV047 (hMPV A, UniProt Q6WB98 19-102).
T30 construct: L141C-A159C
Briefly: BLI, no stress.
Description: as §4, §5

The target in test [42] is T31, hMPV055 (hMPV A, UniProt Q6WB98 19-102).
T31 construct: N145P
Description: BLI, no stress.
Description: as §4, §5

Test [43] concerns the target T32, hMPV050 (hMPV A, UniProt Q6WB98 19-102).
T32 construct: V148C-L158C
Description: BLI, no stress.
Description: as §4, §5

The target of test [44] is T33, stabilized hMPV F protein trimer in pre-fusion conformation (human metapneumovirus).
T33 construct: also called preF-hMPV; hMPV pre-fusion F protein
Description: ELISA, F protein coated.
Description: as §3

By EC50 is commonly meant the concentration needed to bring the measured effect to its halfway point.

B1: PIV1-8 mAb (antibody, V domains shown)
VH: QVQLVQSGAEVKKPGSSVKVSCEASGGTFSNYVISWVRQAPGQGLEWMGGIIPVFATAKYAQKFQGRVTIIADQSTNTAYLELSSLRSDDTAVYFCASVDSGGTWWDAFAIWGQGTMVTVSS
VL: QAVVTQPRSVSGSPGQAVTISCTGTSSDVGGYNYVSWYQHHPGKAPKLIIYDVTKRPSGVPDRFSGSKSGNTASLTISGLQTEYEADYYCCSYAGSYTLVFGGGTKLTVLG
notes: human IgG1; also called hPIV1-8 mAb; hPIV1-8
Take B1: the “Response Shift” value in [1] was 0.489 nm; in test [2], -0.055 nm; in [3] it was -0.02 nm; in test [4] it was -0.016 nm; in test [5] it was -0.039 nm; in test [6] it was -0.073 nm. The “Response Shift” value is -0.046 nm in test [7]; 0.009 nm in test [8]; -0.042 nm in [9]; -0.052 nm in [10]; -0.001 nm in test [11]; 0.162 nm in test [12]. In addition, the “Response Shift” value in test [13] was 0.635 nm; in test [14] it was 0.725 nm; in test [15], 0.192 nm; in test [16], 0.584 nm; in test [17], 0.766 nm; in [18] it was -0.068 nm. For the same molecule, the “Response Shift” value in [19] was 0.748 nm; in test [20] it was 0.745 nm; in test [21] it was 0.606 nm; in test [22], -0.056 nm; in test [23], 0.753 nm; in test [24], 0.753 nm. Besides, the “Response Shift” value in test [25] came out at 0.579 nm; in [26], 0.831 nm. In test [27], this molecule displayed an EC50 of 0.103 nM.

B2: hMPV-2 mAb (antibody, V domains shown)
VH: QVQLQQSGAEVKKPGASVKVSCKASGYTFTSYGISWVRQAPGQGLEWMGWISGYNGNTNYAQTFQGTFTMTTDTSTSTAYMELRRLRSGDTAVYYCARDRYYASGSYNGMDVWGQGTTVTVSS
VL: QSALTQPPSASGAPGQRVTVSCSGSSSNVGSSSVYWYQQLPGTAPKLLIYRNNQRPSGVPDRFSGSKSGTSASLAISGLRSEDEADYYCAAWDDSLSGWVFGGGTKLTVLG
notes: human IgG1
Regarding B2, the “Response Shift” value in test [28] was 0.582 nm; in test [29] it was 0.782 nm; in [30], 0.854 nm; in [31] it was 0.739 nm; in test [32], 0.7 nm; in test [33], 0.774 nm. Also, the “Response Shift” value turned out to be 0.682 nm in test [34]; 0.783 nm in [35]; 0.767 nm in test [36]; 0.636 nm in test [37]; 0.717 nm in test [38]; 0.747 nm in test [39]. Also, the “Response Shift” value in test [40] stood at 0.719 nm; in test [41] it was 0.268 nm; in test [42], 0.627 nm; in test [43], 0.669 nm. Besides, a half-maximal effect in test [44] (EC50) was put at 0.097 nM.
